In PMC6475807:

Molecular target: ^cchexAFG3L2 (human) (UniProt Q9Y4W6)
Assay: SEC

- stoichiometry N: 6
Substance: ^cchexAFG3L2 (from UniProt Q9Y4W6 272-797) (enzyme)
